Residue numbers refer to the chain shown, from its start. Names and notes keep the numbering of the source.
B1: H141R/N338D/G342D/P386T: mutant rice HPPD (protein)
chain: MPPTPTPTATTGAVSAAAAAGENAGFRLVGHRRFVRANPRSDRFQALAFHHVELWCADAASAAGRFAFALGAPLAARSDLSTGNSAHASLLLRSASVAFLFTAPYGGDHGVGADAATTASIPSFSPGAARRFAADHGLAVRAVALRVADAADAFRASVAAGARPAFQPADLGGGFGLAEVELYGDVVLRFVSHPDGADAPFLPGFEGVSNPGAVDYGLRRFDHVVGNVPELAPVAAYISGFTGFHEFAEFTAEDVGTAESGLNSVVLANNAETVLLPLNEPVHGTKRRSQIQTYLDHHGGPGVQHIALASDDVLGTLREMRARSAMGGFEFLAPPPPDYYDDVRRRAGDVLSEEQINECQELGVLVDRDDQGVLLQIFTKPVGDRTTFFLEMIQRIGCMEKDESGQEYQKGGCGGFGKGNFSELFKSIEEYEKSLEAKQAPTVQGS
B2: H141R/N338D/G342D: mutant rice HPPD (protein)
chain: B1 chain with T386P
B3: N338D/G342D/R346C: mutant rice HPPD (protein, listed as Oryza sativa)
chain: B1 chain with R141H, R346C, T386P
modifications: The amino acid sequence of Wild-Type rice HPPD protein (OsHPPD _WT)
B4: H141R/N338D/G342D/R346H: mutant rice HPPD (protein)
chain: B1 chain with R346H, T386P
B5: H141R/G342D/G419F: mutant rice HPPD (protein)
chain: B1 chain with D338N, T386P, G419F
B6: N338D/G342D: mutant rice HPPD (protein)
chain: B1 chain with R141H, T386P
B7: G342D/R346C: mutant rice HPPD (protein, listed as Oryza sativa)
chain: B1 chain with R141H, D338N, R346C, T386P
modifications: The amino acid sequence of Wild-Type rice HPPD protein (OsHPPD _WT)
B8: H141R/G342D/K418P: mutant rice HPPD (protein)
chain: B1 chain with D338N, T386P, K418P
B9: H141R/N338D/G342D/K418P: mutant rice HPPD (protein)
chain: B1 chain with T386P, K418P
B10: H141R/N338D/G342D/K418P/G419F/N420S: mutant rice HPPD (protein)
chain: B1 chain with T386P, K418P, G419F, N420S
B11: H141R/N338D/G342D/R346C: mutant rice HPPD (protein)
chain: B1 chain with R346C, T386P
B12: N338D/G342D/R346H: mutant rice HPPD (protein, listed as Oryza sativa)
chain: B1 chain with R141H, R346H, T386P
modifications: The amino acid sequence of Wild-Type rice HPPD protein (OsHPPD _WT)
B13: H141R/N338D/N420S: mutant rice HPPD (protein)
chain: B1 chain with D342G, T386P, N420S

Test system: OsHPPD
Test: HPPD enzyme activity assay: Km, Kcat and Kcat/Km of OsHPPDs
Format: biochemical, Oryza sativa
Conditions: not given
Description: The rice OsHPPD protein and homogentisate 1,2-dioxygenase (HGD) were obtained by heterologously expressed in E. coli wherein the gene was inserted into the pET 15b expression vector and expressed in the BL21 (DE3) expression strain, and purified by the Ni-NTA resin. • (1) The HPPD open reading frame (ORF) of the positive clone was cloned into the pET-15b vector to form a 6His-HPPD expression vector, and transformed into the BL21 (DE3) cell. The expression strain was inoculated in 10 mL of 2×YT culture medium, and cultivated overnight on a shaker at 37° C. and 200 rpm. The 10 mL of the culture was inoculated in 1 L of 2×YT culture medium and cultivated until the OD600 reached 0.6-0.8, cooled to a temperature of 16° C., and subjected to induced-expression with 0.2 mM IPTG (isopropyl thiogalactoside) overnight. The strains were collected by centrifugation at 2800×g. • (2) The collected strains were re-suspended with the buffer A (50 mM Tris pH 8.0, 500 mM NaCl, 20 mM imidazole), to which PMSF (phenylmethanesulfonyl fluoride) at the final concentration of 1 mM and 250 μL of a protease inhibitor cocktail (i.e., a mixture of multiple protease inhibitors), and mixed. The cells were broken by ultrasound in ice-bath (40% total power, work for 3 seconds/6 seconds interval, 2×30 minutes (Ningbo Scientz Biotechnology Co., Ltd., Ningbo, China)), and centrifuged at 12000 rpm at 4° C. for 30 minutes; and the supernatant was filtered with a 0.22 μm filter membrane. • (3) Purification with the Ni-NTA column: the supernatant was in contact with the Ni-NTA resin, then rinsed with a buffer A containing 50 mM imidazole to remove the impurities, and finally, eluted with an elution buffer containing 400 mM imidazole. • (4) The approximate purity of the protein of interest was analyzed by SDS-PAGE. The eluates containing of the protein of interest were combined and concentrated by an ultrafiltration device (10 kDa molecular weight cut-off, Amicon Ultra). The solution was replaced with a solution containing 20 mM Tris-HCl and having a pH of 7.5 for at least 3 times to desalt. The total protein concentration was determined by the BCA method.
(§1) • 1. The activity of a HPPD enzyme was determined by detecting the conversion of 4-hydroxyphenylpyruvate (4-HPP) to homogentisic acid (HGA) catalyzed by the HPPD enzyme and the conversion of HGA to maleylacetoacetate (MAA) catalyzed by homogentisate dioxygenase. […] 6 μl of 4-hydroxyphenylpyruvate (4-HPP) having a concentration that was as 50 times as the final concentration of the substrate were added to an ELSA plate, and then 294 μL of hydroxyethylpiperazine ethanesulfonic acid (HEPES) with a final concentration of 25 mM and pH of 7, 2 mM of Vitamin C, 10 mM FeSO4, 50 nM homogentisate dioxygenase and 5 to 240 nM HPPD enzyme were added thereto at one time. The final concentration of reaction substrate 4-HPP usually ranged from 1 to 100 μM. • 3. The absorbance changes of the reaction wells at 318 nm were continuously monitored by a UV ELISA detector (ReadMax 1900 photoabsorption type full-wavelength microplate reader) (Shanghai). • 4. Determination of Km, Kcat and Kcat/Km of OsHPPDs
Vmax is the maximum catalytic reaction rate achievable by enzymatic catalysis. The Michaelis constant Km is the concentration of a substrate required when the enzyme catalyzed the reaction to achieve half of the maximum rate (Vmax). The Km value is a constant and independent of the enzyme concentration, and altered as substrate type, reaction temperature, pH, and ionic strength changed. […] is a catalytic constant of an enzyme and referred to the number of substrate molecules that could be catalyzed by an enzyme molecule or enzyme active center per second. KCat/Km represents the catalytic efficiency of enzyme. It could be seen from the data in the table that the catalytic efficiency of most HPPD mutants was enhanced.

Row | Molecule | affinity to substrate (Km)
1 | B1 | not reduced
2 | B2 | not reduced

Same assay, conditions: substrate 4-HPP

Row | Molecule | Km [µM]
3 | B3 | 9.5
4 | B4 | 7.6
5 | B5 | 7.9
6 | B6 | 2.1
7 | B1 | 9.7
8 | B7 | 5.9
9 | B8 | 30.6
10 | B9 | 18.8
11 | B10 | 23
12 | B2 | 6.3
13 | B11 | 7.4
14 | B12 | 6.3
15 | B13 | 5.1

Test system: rice HPPD (OsHPPD)
Test: Color reaction of recombinant E. coli expressing wild-type or mutant rice HPPD, cultured in 96-well plate in medium containing an HPPD-inhibiting herbicide and tyrosine
Format: cell-based, Oryza sativa
Conditions: compound 101
Text: The rice full-length OsHPPD enzyme has 446 amino acids and its amino acid sequence is set forth in SEQ ID NO: 2, wherein the amino acids 1-50 are considered to constitute a signal peptide which is responsible for directing into chloroplast (Siehl et al. Plant Physiol. 2014 November; 166(3): 1162-1176). Therefore, from the amino acid at the 51-position to the amino acid at the […], a saturated random mutation was made for each amino acid. This was achieved by performing a bridge PCR by using a primer containing a coding sequence of an amino acid to be mutated into NNK and another suitable conventional primer. In NNK, N represented A/T/G/C and K represented G/T, and the NNK codon could encode any one of 20 amino acids or terminators. Accordingly, this was a saturated mutation. Please see: Kille S. Acevedo-Rocha C G, Parra L P, Zhang Z G, Opperman D J, Reetz M T, Acevedo J P (2013) Reducing codon redundancy and screening effort of combinatorial protein libraries created by saturation mutagenesis. ACS Synth Biol 2(2):83-92; Directed Evolution Library Creation: methods and protocols 2nd ed. Edited by Elizabeth M. J. Gillam, Janine N. Copp and David F. Ackerley New York, NY United States: Springer, 2014. doi:10.1007/978-1-4939-1053-3. A large number of mutants would be produced. The mutant was cloned into a linearized pET-44a vector and transformed into E. co/i, which was cultivated by using a 96-well plate in a 2×YT culture solution containing an HPPD-inhibiting herbicide (such as 1-2 μM tembotrione) and a substrate tyrosine (1 g/L) in a shaker at 28° C. and 150 rpm for 24 hours for expression, and then the mutants were rapidly screened out according to their color browning. By using the method, 10 single amino acid mutants, A103S, H141R, H141 K, H141T, A165V, V191I, R220K, G342D, D370N and K410I, were screened out. The color reaction of these resistant mutants in the presence of tembotrione and the metabolic product of benzuofucaotong relative to that of the wild type was as shown in FIG. 1.
Similarly, the color reaction of these mutants in the presence of the other three HPPD-inhibiting herbicides huanbifucaotong, topramezone and mesotrione were determined, see FIGS. 2 and 3. The resistance/tolerance of each of the mutants to the five herbicides was roughly estimated on the basis of color changes thereof and the results were shown in Table 1. The more the plus sign “+”, the deeper the color and the higher the resistance/tolerance as compared to the wild type.
HPPD-inhibiting herbicides inhibited HPPD enzymatic activity. When tyrosine was converted to 4-hydroxyphenylpyruvate (HPP) under the action of tyrosine transaminase, the inactivated HPPD was unable to oxidize 4-hydroxyphenylpyruvate into homogentisic acid (HGA). HGA was dark brown. Therefore, if an HPPD mutant was resistant to or tolerant to an herbicide, after expressed in E. coli, the mutant could also oxidize 4-hydroxyphenylpyruvate into homogentisic acid, whereby dark brown appeared. Therefore, E. coli was cultured in a 2×YT culture medium containing a HPPD-inhibiting herbicide and a substrate tyrosine using a 96-well plate to express HPPD, and these mutants were rapidly screened according to their color changes. • (1) Preparation of 2×YT culture medium (1 g/L L-Tyr, 0.1 mM IPTG, 0.01 mM MnCl2 and 100 mg/L ampicillin were added). • (2) 0.1 mL of the above medium was added to each well of a 96-well plate, and the expression clones of OsHPPD wild type or mutant (OsHPPD Mut) from the E. coli plate obtained by the above transformation were subjected to liquid culture in the 96-well plate. HPPD inhibitors having a final concentration of 1 μM-20 μM were added according to different selected agents, for example, the final concentration of tembotrione was 1.7 μM while mesotrione was 10 μM. […]

Row | Molecule | resistance ranking in color reaction
16 | B3 | highest resistance
17 | B9 | strongest resistance
18 | B12 | highest resistance

Test system: OsHPPD proteins
Test: Inhibitory activity (IC50) of the herbicide 101 and huanbifucaotong against OsHPPD proteins
Format: biochemical, Oryza sativa
Conditions: herbicides 101 and huanbifucaotong
Description: as §1
• 5. Determination of inhibitory activity (IC50) of the herbicide 101 and huanbifucaotong against OsHPPD proteins
Due to the unique properties of each of 101 and huangbifucaotong, the degree of the increased IC50 value is not completely consistent for the two HPPD herbicides.

Row | Molecule | resistance in in vitro enzyme activity experiments
19 | B1 | relatively high resistance
20 | B9 | higher resistance
21 | B2 | relatively high resistance
22 | B12 | good resistance

Source: patent publication US12428627B2, “Mutant p-hydroxyphenylpyruvate dioxygenase, and coding nucleic acid and use thereof” (Qingdao Kingagroot Chemical Compound Co., Ltd., priority 2018, dated 2025)
